The chains are these.
B1: glmS ribozyme (parent)
chain: AUAAAAGCGCCAGAACUACAGAAAUGUAGUUGACGAGGAGGAGGUUUAUCGAAUUUUCGGCGGAUGCCUCCAAA

± gives the standard error. Variants at the floor of the assay were thinned out.

Here are results for 33 variants from the supplement of paper PMC7125110.

Variants of B1 are the subject of one series. As to the kind of experiment: self-cleavage kobs at 2500 uM GlcN6P; higher = faster cleavage; RNA array. The note with it: with glucosamine-6-phosphate. The essentials: (§1)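 kobs was derived by fitting per-tile medians to one- or two-exponential decays after normalising signals to baseline and to non-cleaving reference variants. Those signals came from barcoded ribozyme variants transcribed in situ by E. coli RNA polymerase on sequenced MiSeq chips, followed through a hybridised Cy3 probe at 37 °C and imaged over ~14 h. Glucosamine-6-phosphate (40 μM to 10 mM) in HEPES/KCl/Mg(OAc)2 buffer was flowed in. Weighted Michaelis–Menten fits across concentrations then gave kcat and KM.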
As to AUAAAAGCGCCAGAACUACAGAAAUGUAGAUCAGGAGGAGGAGGUUUAUCGAAUAUUCGGCGGAUGCCUCCAAA, the “self-cleavage kobs at 2500 uM GlcN6P” value is less than 1e-05 s⁻¹.

As for AUAAAAGCGCCAGAACUACAGAAAUGUAGUUGACGAGGAGGAGGUUUAUGGAAUCUUCGGCGGAUGCCUCCAAA, the “self-cleavage kobs at 2500 uM GlcN6P” value amounted to 3.57e-05 ± 1.6e-05 s⁻¹.

Consider AUAAAAGCGCCAGGACUACAGAAAUGUAGUUGACGAGGAGGAGUUUUAUCGAAUUAUCGGCGGAUGCCUCCAAA, for which the “self-cleavage kobs at 2500 uM GlcN6P” value worked out at 0.000881 ± 0.00031 s⁻¹.

For the variant AUAAAAGCGCCCGAACUACAGAAAUGUAGUCGACGAGGAGGAGGUUUAUCGAAAUUUCGGCGGAUGACUCCAAA, the “self-cleavage kobs at 2500 uM GlcN6P” value turned out to be 6.33e-05 ± 2e-05 s⁻¹.

For AUAAAAACGCCAGAACUACAGAAAUGUAGUUGACGAGCAGGAGGUUUAUCGAAUUUUCGGCGGCUGCCUCCAAA, the “self-cleavage kobs at 2500 uM GlcN6P” value is less than 1e-05 s⁻¹.

For the variant AUAAAAGCGCUAGAACUACAGAAAUGUACUAGACGAGGAGGAGGUUUAUCGAAUUUUCGGCGGAUGCCUCCAAA, the “self-cleavage kobs at 2500 uM GlcN6P” value was less than 1e-05 s⁻¹.

With AUAAAAGCGCCAGAACUACAGAAAUGUAGUUGACGAGGAGGAGGUUUAUCGAAUUUCCGGCGGAUGCCCCCAAA, the “self-cleavage kobs at 2500 uM GlcN6P” value amounted to 6.42e-05 ± 2.1e-05 s⁻¹.

For AUAAAAGAGCCAGAACUACAGAAAUGUAGUUGACGAGGCGGAGGUUUAUCGAAUUUUCUGCGGCUGCCUCCAAA, the “self-cleavage kobs at 2500 uM GlcN6P” value is less than 1e-05 s⁻¹.

Consider AUAAAAGCGCCAGAACUACAGAAAUGUAGUUGACGAGGACGAGGGUUAUCGAAUUUUUGGCGGAUGCCUCCAAA, for which the “self-cleavage kobs at 2500 uM GlcN6P” value was less than 1e-05 s⁻¹.

For the variant AUAAAAGUGCCAGAACUACAGAAAUGUAGUUGACGAGGAGGAGGUUUAUCGAAUGUUCGGCGGAGGCCUCCAAA, the “self-cleavage kobs at 2500 uM GlcN6P” value was less than 1e-05 s⁻¹.

As for AUAAAAGCGCCAGAACUACAGAAAUGUAGGUGACGAGGAGGAGGAUUAUCGAAUUUUGGGCGGAUGCCUCCAAA, the “self-cleavage kobs at 2500 uM GlcN6P” value amounted to 9.63e-05 ± 1.6e-05 s⁻¹.

Regarding AUAAAUGCGCCAGAACUACAGAAAUGUAGUUGACGAGGAGGAGGUUUAUCGAAUUUUAGGCGGAUGACUCCAAA, the “self-cleavage kobs at 2500 uM GlcN6P” value was less than 1e-05 s⁻¹.

Consider AUAAAAGCGCCAGAACUACAGAAAUGUAGUUGACGAGCAGGAGGUUUACCGAAUUUACGGCGGAGGCCUGCAAA, for which the “self-cleavage kobs at 2500 uM GlcN6P” value was less than 1e-05 s⁻¹.

For AUAAAAGAGCCAGAACUACAGAAAUGUAGUUGACGAAGAGGCGGUUUAUCGAAUUUUCGGCGGAUGCCUCCAAA, the “self-cleavage kobs at 2500 uM GlcN6P” value is less than 1e-05 s⁻¹.

For the variant AUAAAAGCGCCAGACCUACAGAAAUGUAGUUGACGAGGAUGCGGUUUAUCGAAUUUUCGGCGGAUGCCUCCAAA, the “self-cleavage kobs at 2500 uM GlcN6P” value was less than 1e-05 s⁻¹.

Take AUAAAAGCGCCAGAACUACAGAAAUGUAGUUGACGAGGAGGAGGUUUAUCGGAUUUUCGGAGGAUGUCUCCAAA: the “self-cleavage kobs at 2500 uM GlcN6P” value came out at 0.000197 ± 7.1e-05 s⁻¹.

With AUAAAAGCGCCAGAACUACAGAAAUGUAGUUGACGAGGGGGAGGUUUAUCGAAUUUUCGGCGGGUGCCACCAAA, the “self-cleavage kobs at 2500 uM GlcN6P” value was 0.00038 ± 0.00012 s⁻¹.

Consider AUAAAAGGGCCGGAACUACAGAAAUGUAGUUGACGAGGAGGAGGUUUAUCGAAGUUUCGGCGGCAGCCUCGAAA, for which the “self-cleavage kobs at 2500 uM GlcN6P” value was less than 1e-05 s⁻¹.

As to AUAAAAGCGCCAGAACUACAGAAAUGUACUUGACGAGGAGGAGGUUUAUCGAAGUUUCGGCGGAUGCAUCGAAA, the “self-cleavage kobs at 2500 uM GlcN6P” value was found to be 9.33e-05 ± 4.3e-05 s⁻¹.

Regarding AUAAAAGCGCCAGAACUACAGAAAUGUAGUUGACGAGGAGGAGGUUUAUCGAAAUUUCGGCGGGUGCCUACAAA, the “self-cleavage kobs at 2500 uM GlcN6P” value came out at 0.000536 ± 0.00018 s⁻¹.

Regarding AUAAAAGCGCCAGAACUACAGAAAUGUAGUUGAGGAGGGGGAGGUUUAUCGAAUUUUCGUCGGAUGCCUCCAAA, the “self-cleavage kobs at 2500 uM GlcN6P” value was less than 1e-05 s⁻¹.

As to AUAAAAACGCCAAAACUACAGAAAUGUAGUUGACGAGGAGGAGGUUUAUCGAAUUUUCGGCGGAUGCAUCCAAA, the “self-cleavage kobs at 2500 uM GlcN6P” value is less than 1e-05 s⁻¹.

As for AUAAAAGCGCCAGAACUACAGAAAUGUAGUUGACGAGUAGGAGGUUUAUCGAAUUUUCGGCGGAUGGUUCCAAA, the “self-cleavage kobs at 2500 uM GlcN6P” value is 0.000248 ± 8.4e-05 s⁻¹.

For the variant AUAAAAGCGCCAGAACUACAGAAAUGUAGUUGACGUGGAGGAGGUUUAUCGAAUUUGCGGCGGGUGUCUCCAAA, the “self-cleavage kobs at 2500 uM GlcN6P” value is less than 1e-05 s⁻¹.

As to AUAAAAGCGCCACAACUACAGAAAUGUAGUUGAGGAGGAGGAGGUUUACCGAAUUUUCGGCGGAUGCCUCAAAA, the “self-cleavage kobs at 2500 uM GlcN6P” value was less than 1e-05 s⁻¹.

With AUAAAAACGCCAGAACUACAGAAAUGUAGUUGACGAGGAGCAGGCUCAUCGAAUUUUCGGCGGAUGCCUCCAAA, the “self-cleavage kobs at 2500 uM GlcN6P” value was less than 1e-05 s⁻¹.

Take AUAAAAGCGCCAAAACUACAGAAAUGUAGUUGACGAGGAGGAGGUUUAUCGCAUUUUCGACGGAUGCCUCCAAA: the “self-cleavage kobs at 2500 uM GlcN6P” value was less than 1e-05 s⁻¹.

In the case of AUAAAAGCGCCAGAACUACAGAAAUGUAGUUGACUAGGAGGAGGUUUUUCGAAUUGUCGGCGGAUGCCUCCAAA, the “self-cleavage kobs at 2500 uM GlcN6P” value is less than 1e-05 s⁻¹.

As to AUAAAAGCGCCAGAACUACAGAAAUGUAGUUGACGAGCCGGAGGAUUAUCGAAUUUUCGGCGGAUGCCUCCAAA, the “self-cleavage kobs at 2500 uM GlcN6P” value is less than 1e-05 s⁻¹.

Take AUAAAAGCUCUAGAACUACAGAAAUGUAGUUGGCGAGGAUGAGGUUUAUCGAAUUUUCGGCGGAUGCCGCCAAA: the “self-cleavage kobs at 2500 uM GlcN6P” value was less than 1e-05 s⁻¹.

Turning to AUAAAAGCGCCAGAACUACAGAAAUGUAGGUGACGAGGAGGAGGUUUAUCGAAUUUUCGGCGGGUGGCUCCAAA, the “self-cleavage kobs at 2500 uM GlcN6P” value came out at 6.44e-05 ± 3e-05 s⁻¹.

In the case of AUAAAAACGACAGAACUACAGAAAUGUAGUUGACGAGGAGGAGGUUUGUCGAAUUUUCGGCGGAUGCCUCCAAA, the “self-cleavage kobs at 2500 uM GlcN6P” value was less than 1e-05 s⁻¹.

On to AUAAAAGCGCCAAAACUACAGAAAUGUAGGUGACGAGGAGGAGGUUUAUCGAAUUAUCGGCGGAUGCCUCCAAA, for which the “self-cleavage kobs at 2500 uM GlcN6P” value came out at 7.43e-05 ± 2.5e-05 s⁻¹.

Variants of B1 are the subject of another series. As to the kind of experiment: self-cleavage kobs at 10000 uM GlcN6P; higher = faster cleavage; RNA array. The note with it: with glucosamine-6-phosphate. In outline:
as §1
AUAAAAGUGCCAGAACUACAGAAAUGUAGUUGACGAGGAGGAGGUUUAUCGAAUGUUCGGCGGAGGCCUCCAAA: the “self-cleavage kobs at 10000 uM GlcN6P” value is less than 1e-05 s⁻¹.

On to AUAAAAGCGCCAGAACUACAGAAAUGUAGGUGACGAGGAGGAGGAUUAUCGAAUUUUGGGCGGAUGCCUCCAAA, for which the “self-cleavage kobs at 10000 uM GlcN6P” value stood at 0.000163 ± 4.1e-05 s⁻¹.

For AUAAAAGCGCCAGAACUACAGAAAUGUAGUUGACGUGGAGGAGGUUUAUCGAAUUUGCGGCGGGUGUCUCCAAA, the “self-cleavage kobs at 10000 uM GlcN6P” value is less than 1e-05 s⁻¹.

As to AUAAAAGCUCUAGAACUACAGAAAUGUAGUUGGCGAGGAUGAGGUUUAUCGAAUUUUCGGCGGAUGCCGCCAAA, the “self-cleavage kobs at 10000 uM GlcN6P” value is less than 1e-05 s⁻¹.
